PMC4432651, “Dynamic interplay between catalytic and lectin domains of GalNAc-transferases modulates protein O-glycosylation” (Nature Communications, 2015)
Where no end group is shown, it is not given here.

Assays:
[1] = molecular target: T1, polypeptide N-acetylgalactosaminyltransferase 2 (GalNAc-T2), K75-Q571 (human, UniProt Q10471 75-571); experiment: other fluorescence titration; tryptophan fluorescence quenching of GalNAc-T2 (1 µM) by peptides at 1-500 µM; 25 mM Tris, 150 mM NaCl, pH 7.5, 25 °C; with 400 µM UDP and 1 mM MnCl2; single binding site model; conditions: both partners purified
T1 construct: GalNAc-T2 (polypeptide N-acetylgalactosaminyltransferase 2), residues K75-Q571: catalytic domain, flexible linker and lectin domain; Theoretical MW 56.7 kDa (D1:p10); source: expression plasmid pPICZαAgalnact2 (K75-Q571)
T1 sequence (Q10471 75-571): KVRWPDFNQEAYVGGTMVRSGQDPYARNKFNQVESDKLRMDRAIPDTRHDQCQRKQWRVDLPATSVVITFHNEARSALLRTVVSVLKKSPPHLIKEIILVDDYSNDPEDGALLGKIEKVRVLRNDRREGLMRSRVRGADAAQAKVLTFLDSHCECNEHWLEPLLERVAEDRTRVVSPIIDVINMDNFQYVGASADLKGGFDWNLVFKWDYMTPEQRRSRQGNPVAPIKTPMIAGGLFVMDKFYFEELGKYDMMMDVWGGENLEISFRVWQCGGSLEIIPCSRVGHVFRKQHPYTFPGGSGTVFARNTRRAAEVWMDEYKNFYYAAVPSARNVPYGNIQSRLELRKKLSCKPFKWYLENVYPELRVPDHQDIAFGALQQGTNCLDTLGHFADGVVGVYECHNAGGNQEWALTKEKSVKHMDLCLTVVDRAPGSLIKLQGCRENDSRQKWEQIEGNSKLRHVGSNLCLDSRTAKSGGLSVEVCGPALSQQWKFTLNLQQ

[2] = molecular target: T1, polypeptide …; experiment: other fluorescence titration; tryptophan fluorescence quenching of GalNAc-T2 (1 µM) by peptides at 1-500 µM; 25 mM Tris, 150 mM NaCl, pH 7.5, 25 °C; no UDP/Mn2+; single binding site model; conditions: both partners purified
[3] = molecular target: the molecule itself; experiment: SAXS; solution scattering with ensemble analysis (EOM), monomer and dimer pools; enzyme without ligands (2.5, 5.0 and 10.0 mg/ml) or with UDP or UDP-GalNAc

Row | Binder | Kd [1] | Kd [2] | stoichiometry N [3]
1 | GTTPSPVPTTSTTSA (peptide named after mucin MUC5AC; Made on Rink amide resin, so the C-terminus is probably an amide (surmised); source: synthetic peptide (Fmoc solid-phase synthesis on Rink Amide MBHA resin, HPLC purified)) [MUC5AC peptide (naked)] | 31 ± 16 µM | 7 ± 3 µM | 
2 | polypeptide N-acetylgalactosaminyltransferase 2 (GalNAc-T2), K75-Q571 (enzyme, GalNAc-T2, residues K75-Q571, catalytic domain, flexible linker and lectin domain; Monomers and dimers coexist in solution by SAXS; also called wild-type (WT) enzyme) not shown |  |  | 2
3 | GTTPSPVPTTSTT(GalNAc)SA (Made on Rink amide resin, so the C-terminus is probably an amide (surmised); source: synthetic peptide (Fmoc solid-phase synthesis on Rink Amide MBHA resin, HPLC purified)) [MUC5AC-13 glycopeptide] | 5 ± 1 µM | 8 ± 3 µM | 
4 | GTT(GalNAc)PSPVPTTSTT(GalNAc)SA (not fully specified (C-terminus), Made on Rink amide resin, so the C-terminus is probably an amide (surmised); source: synthetic peptide (Fmoc solid-phase synthesis on Rink Amide MBHA resin, HPLC purified)) [MUC5AC-3-13 diglycosylated peptide] | 17 ± 9 µM | 11 ± 4 µM | 
